# Assay results published in paper PMC4504036.
# Key:
# [1] = target: Recombinant wild-type phospholipid transfer protein (rPLTP) (human) (UniProt P55058); assay: SPR; BIAcore 3000; rPLTP with C-terminal His-tag captured on anti-His tag monoclonal antibody immobilised on a CM5 chip; factor XII (0-750 nM) or factor XI injected; 50 mM Hepes, 150 mM NaCl, 5 mM CaCl2, pH 7.4; global fit, simple Langmuir model; apparent Kd
# Human factor XII (human) [2] = target: Human factor XII (human)
# Human factor XII (human) [3] = target: Human factor XII (human); remark: listed apart in the source
Kd [1] [nM],koff [1] [s⁻¹],kon [1] [M⁻¹ s⁻¹],"inhibition by rPLTP of sulfatide-stimulated factor XII autoactivation in a purified system in the presence of VLDL (factor XIIa amidolytic activity, S2302, at 15 min) (Human factor XII (human) [2]) [µg/mL]",inhibition by rPLTP of sulfatide-induced kallikrein generation (contact activation) in plasma (S2302 amidolytic activity at 6 min) (Human factor XII (human) [3]) [µg/mL],Substance
190,0.006,31000,–,–,Human factor XII (natural protein)
–,–,–,1.2,0.69,Recombinant wild-type phospholipid transfer protein (rPLTP) (from UniProt P55058 18-493) (natural protein)
